Patent publication US20250332297A1, “DLL3-SPECIFIC BINDING CONSTRUCTS AND THEIR USE IN RADIOTHERAPY” (MOLECULAR PARTNERS AG, priority 2024, published 2025)

What was measured:
Human DLL3-ECD = biological target: T1, Human DLL3-ECD (Homo sapiens, UniProt Q9NYJ7); experiment: SPR, immobilized DARPin, binding of human DLL3-ECD (Example 17); conditions: immobilized biotinylated DARPin, DLL3-ECD as analyte, 1:1 Langmuir, Table 19
T1 construct: the extracellular domain of DLL3 (DLL3-ECD) from human, cynomolgus monkey, mouse and pig
T1 sequence (Q9NYJ7 27-492 limits assumed): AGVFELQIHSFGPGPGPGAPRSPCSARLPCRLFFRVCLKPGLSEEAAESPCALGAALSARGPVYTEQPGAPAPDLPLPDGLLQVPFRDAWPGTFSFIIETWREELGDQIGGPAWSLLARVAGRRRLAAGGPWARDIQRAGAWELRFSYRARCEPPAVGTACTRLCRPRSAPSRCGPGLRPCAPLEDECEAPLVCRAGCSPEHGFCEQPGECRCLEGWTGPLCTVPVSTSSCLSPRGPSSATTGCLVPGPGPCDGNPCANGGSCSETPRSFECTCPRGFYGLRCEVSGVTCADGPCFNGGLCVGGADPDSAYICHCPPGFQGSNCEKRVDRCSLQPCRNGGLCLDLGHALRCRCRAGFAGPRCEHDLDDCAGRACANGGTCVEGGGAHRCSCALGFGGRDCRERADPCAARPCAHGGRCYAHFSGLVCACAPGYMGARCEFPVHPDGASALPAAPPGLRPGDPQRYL
Method: (§1) Kinetic binding parameters and binding affinities of two domain (2D) ankyrin repeat protein MAM279 and single domain (1 D) ankyrin repeat protein MAM093 to DLL3 from different species were determined. The DLL3-specific ankyrin repeat domain of MAM093 is identical to the DLL3-specific ankyrin repeat domain comprised in MAM279.
(§2) SPR multi-trace analyses were performed similarly as described in Examples 1 and 11. Here, the binding kinetics of immobilized DARPin proteins to the extracellular domain of DLL3 (DLL3-ECD) from human, cynomolgus monkey, mouse and pig were determined. Various concentrations of recombinant DLL3-ECD starting from 500 nM were applied to immobilized biotinylated 2D DARPin (MAM279; SEQ ID NO: 11) or 1 D DARPin (MAM093; SEQ ID NO: 1) (both with a Glycine-Serine (GS) at the N-terminal end) for on-rate and off-rate measurements.
(§3) Streptavidin SAHC200M (Xantec) SPR chip was conditioned according to the manufacturer's protocol. Biotinylated DARPins were immobilized to a coating density of 27 resonance units (RU) for 1D DARPin and 25 RU for 2D DARPin. All analytes (3-fold dilution ranging from 500-6.17 nM) were injected in succession for 240 s and dissociation was recorded for 10800 s using a constant flow of 100 μl/min.

Cyno DLL3-ECD = experiment: SPR, immobilized DARPin, binding of cyno DLL3-ECD (Example 17); set-up: species or system cynomolgus monkey; conditions: immobilized biotinylated DARPin, DLL3-ECD as analyte, 1:1 Langmuir, Table 19
Method: as §1, §2, §3

pig DLL3-ECD = experiment: SPR, immobilized DARPin, binding of pig DLL3-ECD (Example 17); conditions: immobilized biotinylated DARPin, DLL3-ECD as analyte, 1:1 Langmuir, Table 20
Method: as §1, §2, §3

human serum albumin [1] = biological target: T2, human serum albumin (Homo sapiens, UniProt P02768); experiment: SPR binding to human serum albumin (Example 18); set-up: purchased CSL; conditions: immobilized HSA, 1:1 Langmuir, Table 21
Method: SPR multi-trace analyses were performed similarly as described in previous Examples. The following ankyrin repeat proteins analyzed: (i) MAM279 (SEQ ID NO: 11) (with a Glycine-Serine (GS) at its N-terminal end); and (ii) MAM279 (SEQ ID NO: 11), with a Glycine-Serine (GS) at its N-terminal end and a tag (SEQ ID NO: 10) at its C-terminal end (resulting in GS-MAM279-tag (SEQ ID NO: 15)), conjugated to the chelator DOTAM as described in Example 3.
All analytes (3-fold dilution ranging from 600-7.41 nM) were injected in succession for 240 s and dissociation was recorded for 600 s using a constant flow of 25 μl/min (HSA) or 100 μl/min (MSA) (25 μl/min). […] The obtained SPR traces were used to determine the DARPin-serum albumin interaction parameters, and results are summarized in Table 21.

[2] = Dose response finding (tolerability) in WT CD1 mice
Description: Animals were under observation daily and 3× per week animals were weighed. […] The data were expressed as % of body weight (BW) change (relative to the initial BW −7 day before the treatment).
Animals were under observation daily and 3× per week animals were weighed. […] The data were expressed as % of body weight (BW) change (relative to the BW seven days before the treatment, i.e. the initial BW at day −7) (average+/−SEM).

[3] = biological target: T3, human DLL3 and human serum albumin (Homo sapiens, UniProt P02768+Q9NYJ7); experiment: SPR simultaneous binding to DLL3 and serum albumin; conditions: immobilized hDLL3-ECD, 150 nM conjugate then 1000 nM HSA
T3 construct: Biotinylated recombinant human DLL3-ECD was immobilized
Method: Studies were performed to determine whether a two domain (2D) ankyrin repeat protein conjugate, as described herein, can bind simultaneously to DLL3 and serum albumin. The specific conjugate tested was MAM279 (SEQ ID NO: 11), with a Glycine-Serine (GS) at its N-terminal end and a tag (SEQ ID NO: 10) at its C-terminal end (resulting in GS-MAM279-tag (SEQ ID NO: 15)), conjugated to the chelator DOTAM as described in Example 3.
An SPR assay was used to assess the concurrent binding of DARPin (MAM279) conjugate to both human DLL3 and human serum albumin (HSA). […] A streptavidin SAHC200M (Xantec) sensor chip was conditioned according to the manufacturer's protocol. Biotinylated recombinant human DLL3-ECD was immobilized to a coating density of 1350-1470 RU. A single injection of 150 nM DARPin conjugate was performed, with an association time of 240 s using a constant flow of 100 μl/min. After a lag time of ˜300 seconds, HSA was injected at 1000 nM with an association time of 240 seconds and a dissociation time of 900 seconds using a constant flow of 100 μl/min. Control lanes were used where only one of the analytes or only PBST was injected. The signal was double referenced (interspot and buffer injection). The figure (FIG. 17) was prepared with GraphPad Prism 10.2.3.

human serum albumin [4] = biological target: T2, human serum albumin; conditions: class in words (Low, Mid, High); Table 5
Method: For SPR analysis, the free Cysteine of the 2D DARPins was capped with Iodoacetamide (IAM). A surface plasmon resonance (SPR) assay was then used to determine the binding kinetics of the three 2D DARPins to human or mouse serum albumin. Various concentrations of 2D DARPins starting from 2000 nM were applied to immobilized human serum albumin (HSA) or mouse serum albumin (MSA) for on-rate and off-rate measurements.
The data were generated using a BioRad ProteOn instrument with SPR running buffer (PBS, pH 7.4 containing 0.05% Tween 20®). A HC200M chip (Xantec) was conditioned according to the manufacturer's protocol. The chip was coated with purified human serum albumin (HSA, CSL) or mouse serum albumin (MSA, Sigma-Aldrich) in NaOAc pH5.0 to reach a signal intensity of ˜380 (HSA) or ˜630 (MSA) RU for the analysis of Intermediate HSA affinity 2D DARPin and High HSA affinity 2D DARPin; ˜1125 (HSA) or ˜1965 (MSA) for the analysis of Low HSA affinity 2D DARPin. All analytes (3-fold dilution ranging from 2000-24.69 nM) were injected in succession for 240 s (50 μl/min) and dissociation was recorded for 600 s (50 μl/min). The data was double referenced (control spot and buffer injection) and fitted to a 1:1 Langmuir model. The obtained SPR traces were used to determine binding parameters.

B1: MAM279: Two domain (2D) ankyrin repeat protein: serum albumin-specific domain (SEQ ID NO: 7), PT linker, DLL3-specific domain of MAM093 (protein)
chain: DLGKKLLEAARAGQDDEVRELLKAGADVNAKDYFSHTPLHLAARNGHLKIVEVLLKAGADVNAKDFAGKTPLHLAADAGHLEIVEVLLKAGADVNAQDIFGKTPADIAADAGHEDIAEVLQKAAGSPTPTPTTPTPTPTTPTPTPTGSDLGKKLLAAAAQGQDDEVRELLKAGANVNAKDLFGYTPLHLAAWRGHLEIVEVLLKAGADVNAKDAAGETPLHLAAWFGHLEIVEVLLKAGADVNAQDLQGKTPADLAAKEGHEDIAEVLQKAA
modifications: Ankyrin repeat protein (MAM279)
With B1 the Kd (Human DLL3-ECD) was 0.127 nM, the “Koff Human DLL3-ECD” value (Human DLL3-ECD) was 1.31e-05 s⁻¹ and the “Kon Human DLL3-ECD” value (Human DLL3-ECD) was 102000 M⁻¹ s⁻¹. For the same molecule, the Kd (Cyno DLL3-ECD) was 8.88 nM, the “Koff Cyno DLL3-ECD” value (Cyno DLL3-ECD) was 0.000939 s⁻¹ and the “Kon Cyno DLL3-ECD” value (Cyno DLL3-ECD) was 106000 M⁻¹ s⁻¹. The Kd (pig DLL3-ECD) was 17.3 nM, the “Koff pig DLL3-ECD” value (pig DLL3-ECD) was 0.000319 s⁻¹ and the “Kon pig DLL3-ECD” value (pig DLL3-ECD) was 18400 M⁻¹ s⁻¹. For the same molecule, the Kd (human serum albumin [1]) was 75.5 nM, the “Koff HSA” value (human serum albumin [1]) was 0.0216 s⁻¹ and the “Kon HSA” value (human serum albumin [1]) was 286000 M⁻¹ s⁻¹.

B2: MAM279 conjugate: SEQ ID NO: 15 conjugated to DOTAM-maleimide, labelled with Pb-212 (natural lead in PK studies) (conjugate)
chain: GSDLGKKLLEAARAGQDDEVRELLKAGADVNAKDYFSHTPLHLAARNGHLKIVEVLLKAGADVNAKDFAGKTPLHLAADAGHLEIVEVLLKAGADVNAQDIFGKTPADIAADAGHEDIAEVLQKAAGSPTPTPTTPTPTPTTPTPTPTGSDLGKKLLAAAAQGQDDEVRELLKAGANVNAKDLFGYTPLHLAAWRGHLEIVEVLLKAGADVNAKDAAGETPLHLAAWFGHLEIVEVLLKAGADVNAQDLQGKTPADLAAKEGHEDIAEVLQKAAGSGSC
modifications: DOTAM-maleimide, Pb-212 label; Ankyrin repeat protein with tag (GS-MAM279-tag)
In the case of B2, the appearance of animals ([2]; Pb-212 labelled conjugate injected once at 10 μCi, 20 μCi and 30 μCi i.v., WT CD1 mice) is reported as “animals appeared healthy and active”, the “body weight (BW) change” value ([2]; Pb-212 labelled conjugate injected once at 10 μCi, 20 μCi and 30 μCi, WT CD1 mice, recovered within up to about 10 days) is reported as “Minimal weight loss” and the toxicity ([2]; Pb-212 labelled conjugate, injected dose of 60 μCi, WT CD1 mice) is reported as “Toxicity was observed”. For the same molecule, the “hematology profile (white blood cells, lymphocytes, monocytes, neutrophils)” value ([2]; within up to 28 days after injection of 10 μCi, 20 μCi and 30 μCi doses (data not shown)) was “complete recovery”.

B3: MAM279-DOTAM: GS-MAM279-tag (SEQ ID NO: 15) conjugated to the chelator DOTAM via C-terminal tag and maleimide connector, no radionuclide (conjugate)
chain: B2 chain
modifications: DOTAM chelator via maleimide on C-terminal tag; Ankyrin repeat protein with tag (GS-MAM279-tag)
In the case of B3, the “simultaneous binding to DLL3 and serum albumin” value [3] is reported as “can bind simultaneously to human DLL3 and human serum albumin”.

B4: MAM160: Two domain (2D) ankyrin repeat protein: serum albumin-specific domain (SEQ ID NO: 7), PT linker, DLL3-specific domain MAM120 (protein)
chain: DLGKKLLEAARAGQDDEVRELLKAGADVNAKDYFSHTPLHLAARNGHLKIVEVLLKAGADVNAKDFAGKTPLHLAADAGHLEIVEVLLKAGADVNAQDIFGKTPADIAADAGHEDIAEVLQKAAGSPTPTPTTPTPTPTTPTPTPTGSDLGTKLLSAAADGQDDEVRELLQAGADVNAKDLFGYTPLHLAAWRGHLEIVEVLLEAGADVNAKDAAGLTPLHLAAWFGHLEIVEVLLEAGADVNAQDVQGVTPADLAAKEGHEDIAEVLQQAA
modifications: Ankyrin repeat protein (MAM160)
With B4 the HSA affinity (human serum albumin [4]) was “High”.
